Assay results as given in the Immune Epitope Database (IEDB).

Columns and labels:
Test in all cases: IEDB peptide-MHC binding, purified MHC/competitive/radioactivity; filed as Kd, often an IC50 or EC50 that approximates it; ≥ and ≤ were set here for values at or beyond the usual limits of such assays
[1] = target: HLA-A*03:01
[2] = target: HLA-A*11:01
[3] = target: HLA-A*31:01
[4] = target: HLA-A*33:01
[5] = target: HLA-A*68:01
[6] = target: HLA-A*02:03
[7] = target: HLA-A*02:06
[8] = source organism: Vaccinia virus WR
[9] = source organism: Mammarenavirus machupoense
[10] = source organism: SARS coronavirus Tor2
[11] = source organism: Dengue virus 2 Jamaica/1409/1983
[12] = source organism: Mammarenavirus guanaritoense
[13] = source organism: Mammarenavirus juninense
[14] = source organism: Mammarenavirus brazilense

Row | Sequence | Kd [1, 8] [nM] | Kd [2, 8] [nM] | Kd [3, 8] [nM] | Kd [4, 8] [nM] | Kd [5, 8] [nM] | other results
1 | NFGTIILNK | 1350 | 1090 | 1270 | 1540 | 508 | 
2 | EWIEFTNFK |  |  |  |  |  | Kd [1, 9]: 9580 nM; Kd [2, 9]: 3290 nM; Kd [3, 9]: 15400 nM; Kd [4, 9]: 66.7 nM; Kd [5, 9]: 4.52 nM
3 | ALCTFLLNK |  |  |  |  |  | Kd [1, 10]: 0.778 nM; Kd [2, 10]: 2.74 nM; Kd [3, 10]: 352 nM; Kd [4, 10]: 6670 nM; Kd [5, 10]: 1050 nM
4 | NFDYPFFRK | 9090 | 191 | 90.2 | 308 | 393 | 
5 | NAISSRVDRY | ≥ 42600 | 18000 | 11000 | ≥ 70000 | 10700 | 
6 | EISSNDNAK | 16800 | 443 | ≥ 55600 | 9600 | 31 | 
7 | RLASNAICSA |  |  |  |  |  | Kd ([6]; source organism: Dengue virus 3 Martinique/1243/1999): 135 nM
8 | PLVAGGLLTV |  |  |  |  |  | Kd [6, 11]: 35.1 nM
9 | LCCSLDHSK |  |  |  |  |  | Kd [1, 12]: ≥ 33700 nM; Kd [2, 12]: ≥ 38400 nM; Kd [3, 12]: 811 nM; Kd [4, 12]: 7340 nM; Kd [5, 12]: ≥ 32700 nM
10 | DSPLTLLIK | ≥ 78000 | 6250 | ≥ 55600 | ≥ 77700 | 1320 | 
11 | KSTVKLVQR | 16500 | 1420 | 4.44 | 1480 | 1530 | 
12 | LLDSYFVVK |  |  |  |  |  | Kd [1, 10]: 40.3 nM; Kd [2, 10]: 47.2 nM; Kd [3, 10]: 1270 nM; Kd [4, 10]: 12700 nM; Kd [5, 10]: 2060 nM
13 | NIADAARHY | 6720 | 11300 | 5040 | 7730 | 469 | 
14 | DLIVTFRERY | 35.1 | 52.6 | 137 | 1240 | 23.5 | 
15 | IIFLKLFKK | 8.76 | 4.44 | 5.67 | 4.85 | 13.2 | 
16 | FQRVLIFIL |  |  |  |  |  | Kd ([7]; source organism: Dengue virus 2 Peru/IQT2913/1996): 1580 nM
17 | NLEMIDERK | ≥ 70000 | 1110 | 9460 | ≥ 77700 | 49.4 | 
18 | CFKEASFSK | 966 | 1370 | 13 | 11.6 | 1230 | 

Row | Sequence | Kd [1, 8] [nM] | Kd [2, 8] [nM] | Kd [3, 8] [nM] | Kd [4, 8] [nM] | Kd [5, 8] [nM] | other results
19 | GIFKNNDVR | 2210 | 1660 | 11500 | ≥ 28400 | 132 | 
20 | AFDISVNASK | 593 | 1230 | 1660 | ≥ 32300 | 1040 | 
21 | TLSPAHLINK | 2.05 | 1.29 | 168 | 11400 | 120 | 
22 | ANKQYIHCFR |  |  |  |  |  | Kd [1, 13]: 17800 nM; Kd [2, 13]: ≥ 46600 nM; Kd [3, 13]: 12.8 nM; Kd [4, 13]: 130 nM; Kd [5, 13]: 9810 nM
23 | MVNHSTYYV |  |  |  |  |  | Kd [1, 14]: 94.7 nM; Kd [2, 14]: 590 nM; Kd [3, 14]: 10.3 nM; Kd [4, 14]: 810 nM; Kd [5, 14]: 94.8 nM
24 | QTTVNTLSER | 1520 | 76.8 | 21.7 | 155 | 5.22 | 
25 | KIIAVFDSK | 8.19 | 6.68 | 126 | 7970 | 474 | 
26 | AISKLGINY | 178 | 22 | 2740 | 8450 | 1340 | 
27 | HAFDAPTLY | 33.9 | 185 | ≥ 48400 | ≥ 77700 | 30.3 | 
28 | SLCFLLTQK |  |  |  |  |  | Kd [1, 10]: 25.6 nM; Kd [2, 10]: 22.7 nM; Kd [3, 10]: 231 nM; Kd [4, 10]: 5560 nM; Kd [5, 10]: 1200 nM
29 | SAVFKDSFLR | 664 | 45.9 | 23.9 | 372 | 18.2 | 
30 | SAFNDDGIY | ≥ 78000 | 14000 | 9580 | ≥ 77700 | 1860 | 
31 | AILLVAVSFV |  |  |  |  |  | Kd [7, 11]: 60.9 nM
32 | PISELSRLR | ≥ 78000 | 5400 | 484 | 919 | 679 | 
33 | VTISKDNLER | ≥ 39000 | 13.7 | 118 | 357 | 62.6 | 
34 | TVKTNLYMK | 3680 | 16.2 | 81.7 | 6320 | 104 | 
35 | SAVVDNKLK | ≥ 23600 | 508 | ≥ 58900 | ≥ 77700 | 580 | 
